These results are taken from publication PMC2881539 (Analytical biochemistry, 2010).

Experiment in all cases: ELISA
One test has as its target Fzd5 CRD (UniProt Q13467). Particulars: cited from earlier work.
A further test has as its target mWnt3a-V5/6xHis (mouse, UniProt P27467 19-352).
Test [1] has as its target T1, purified hSFRP4 (R & D Systems) (human, UniProt Q6FHJ7 19-346).
T1 sequence (looked up): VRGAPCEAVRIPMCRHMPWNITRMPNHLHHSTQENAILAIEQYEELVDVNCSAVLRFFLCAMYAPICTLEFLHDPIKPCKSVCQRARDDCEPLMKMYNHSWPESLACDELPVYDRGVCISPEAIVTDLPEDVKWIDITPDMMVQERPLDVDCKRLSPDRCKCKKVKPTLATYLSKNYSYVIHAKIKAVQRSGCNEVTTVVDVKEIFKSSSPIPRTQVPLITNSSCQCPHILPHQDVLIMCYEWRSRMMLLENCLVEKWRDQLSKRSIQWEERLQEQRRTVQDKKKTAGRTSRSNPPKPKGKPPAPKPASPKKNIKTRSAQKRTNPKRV

As usually defined, the Kd is the free concentration of one partner at which half of the binding sites on the other are occupied at equilibrium, for simple one-to-one binding.

mWnt3a-V5/6xHis, sequence (P27467 19-352): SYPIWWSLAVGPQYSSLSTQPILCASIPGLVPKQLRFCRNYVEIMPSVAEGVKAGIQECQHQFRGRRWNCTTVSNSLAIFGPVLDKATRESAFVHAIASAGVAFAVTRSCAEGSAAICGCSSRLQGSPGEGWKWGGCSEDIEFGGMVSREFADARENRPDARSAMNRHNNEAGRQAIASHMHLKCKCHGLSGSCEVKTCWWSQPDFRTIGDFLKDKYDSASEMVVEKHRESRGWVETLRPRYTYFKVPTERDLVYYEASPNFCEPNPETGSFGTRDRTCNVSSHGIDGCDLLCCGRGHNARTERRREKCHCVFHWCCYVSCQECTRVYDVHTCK

For Wnt7a (from UniProt O00755), in the test with Fzd5 CRD, the Kd was 75.4 nM.

B1: hFzd5CRD-Fc IgG (Fc fusion, human, UniProt Q13467 27-150, looked up)
chain: ASKAPVCQEITVPMCRGIGYNLTHMPNQFNHDTQDEAGLEVHQFWPLVEIQCSPDLRFFLCSMYTPICLPDYHKPLPPCRSVCERAKAGCSPLMRQYGFAWPERMSCDRLPVLGRDAEVLCMDY
B1: in the test with mWnt3a-V5/6xHis, the Kd came out at 83.7 nM.

B2: rWnt7a V5/6xHis (ligand, UniProt O00755 32-349, looked up)
chain: LGASIICNKIPGLAPRQRAICQSRPDAIIVIGEGSQMGLDECQFQFRNGRWNCSALGERTVFGKELKVGSREAAFTYAIIAAGVAHAITAACTQGNLSDCGCDKEKQGQYHRDEGWKWGGCSADIRYGIGFAKVFVDAREIKQNARTLMNLHNNEAGRKILEENMKLECKCHGVSGSCTTKTCWTTLPQFRELGYVLKDKYNEAVHVEPVRASRNKRPTFLKIKKPLSYRKPMDTDLVYIEKSPNYCEEDPVTGSVGTQGRACNKTAPQASGCDLMCCGRGYNTHQYARVWQCNCKFHWCCYVKCNTCSERTEMYTCK
The molecule B2 yielded a Kd in test [1] of 86.5 nM.
